Source: the nanobody polyreactivity screen of Harvey et al. (2022)

Assay: yeast display, Sf9 membrane polyspecificity reagent, FACS + sequencing; frameworks hold sequencing errors
In short: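 Nanobodies came from a synthetic yeast display library in Saccharomyces cerevisiae BJ5465, induced with galactose for 36–48 hours and stained for 1 hour at 4 °C with 10% biotinylated, detergent-solubilized Sf9 membrane reagent. Cells were enriched on streptavidin microbeads and then FACS-sorted, with low and high (top ~1%) gates set on anti-HA fluorescence for expression and streptavidin fluorescence for reagent binding. Each polyreactivity label reflects the gate a clone came from. Genes were amplified by colony PCR, sequenced by MiSeq 2 × 250 and filtered by CDR length.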

Row | Sequence | polyreactivity (PSR sort gate)
1 | QVQLVESGGGLVQAGGRLRLSCAASGRIFPDNTMGWYRQAPGKERELVAVITYSGGSTYYADSVKGRFTISRDNAKNTVYLQMNSLKPEDTAVYYCAARDYYIWFAEVDYWGQGTQVTVSS | low polyreactivity
2 | QVQLVESGGGLVQAGGRLRLSCAASGRIFSAYAMGWYRQAPGKERELVAAISRSGGRTYYADSVKGRFTISRDNAKNTVYLQMNSLKPEDTAVYYCAAARFAIVRGDYWGQGTQVTVSS | high polyreactivity
3 | QVQLVESGGGLVQAGGRLRLSCAASGRIFSKNAMGWYRQAPGKERELVAVISARGGNTYYADSVKGRFTISRDNAKNTVYLQMNSLKPEDTAVYYCNTPRPYEITTREYYYWGQGTQVTVSS | high polyreactivity
4 | QVQLVESGGGLVQAGGRLRLSCAASGRIFVAYVMGWYRQAPGKERELVAAITRGVRTYYADSVKGRFTISRDNAKNTVYLQMNSLKPEDTAVYYCAARGISAFSQDYEYYYWGQGTQVTVSS | high polyreactivity
5 | QVQLVESGGGLVQAGGRLRLSCAASGRIFVRYVMGWYRQAPGKERELVAAISGGGSSTYYADSVKGRFTISRDNAKNTVYLQMNSLKPVDTAVYYCAAKGTRQPRFDFWGQGTQVTVSS | high polyreactivity
6 | QVQLVESGGGLVQAGGRLRLSCAASGRIFVVYAMGWSRQAPGKERELVAAISKRGGSTYYADSVKGRFTISRDNAKYTVYLQMNTLKPEDTAVYYCAAGRYKSDLMDYWGQGTQVTVSS | high polyreactivity
7 | QVQLVESGGGLVQAGGRLRLSCAASGRIFYLNAMGWYRQAPGKERELVAAINTSGDSSYYADSVKGRFTISRDNAKNTVYLQMNSLKPEDTAVYYCAAYVIGPDQFIYDYWGQGTQVTVSS | low polyreactivity
8 | QVQLVESGGGLVQAGGRLRLSCAASGRIFYYNAMGWYRQAPGKERELVATITGSGGSTYYADSVKGRFTISRDIAKNTVYLQMNSLKPEDTAVYYCAKRIYRYQYRPENYWGQGTQVTVSS | low polyreactivity
9 | QVQLVESGGGLVQAGGRLRLSCAASGRSYPPYAMGWYREAPGKERELLAAISYSGGSTYYADSVTGRFTISRDNAKNPVYLQMNSLKPEDTSVFYCNKDISREVGIRMDDWGQGTQVTVSS | high polyreactivity
10 | QVQLVESGGGLVQAGGRLRLSCAASGRTFGVYVMGWYRQAPGKERELVAAISSSGGLTYYADSVKGRFTISRDNAKNTVYLQMNSMKPEDTAVYYCNAVRRREERDGPPNPMDYWGQGTQVTVSS | high polyreactivity
11 | QVQLVESGGGLVQAGGRLRLSCAASGRTFNYYAMGWYRQAPGKERELVATISYNGASTYYADSVKGRFTISRDNAKNTVYLQMNSLKPEDTAVYYCAAGYLWRGRLGNWGQGTQVTVSS | high polyreactivity
12 | QVQLVESGGGLVQAGGRLRLSCAASGRTFPLYAMGWYRQAPGKERELVAAISSSGGNTYYADSVKGRFTISRDNAKNTVYLQMNSLIPEETAVYYCNADVSTNSDRLQLDYWGQGTQVTVSS | low polyreactivity
13 | QVQLVESGGGLVQAGGRLRLSCAASGRTFTYFAMGWYRKAPGKERELVAAISWDDDSTYYADSVKGRFTISRDYAKNTVYLQMNSLKPEDTAVYYCAASYYRQSGEYDYWGQGTQVTVSS | low polyreactivity
14 | QVQLVESGGGLVQAGGRLRLSCAASGRTFYVYAMGWYRQAPGKERELVAAISWTGGSTYYADSVKGRFTISRDHAKNTVYLQMNSLKPEDTAVYDCAVDVYRRDYVAYEYWGQGTQVTVSS | high polyreactivity
15 | QVQLVESGGGLVQAGGRLRLSCAASGRTIVQNAMVWYRHDPGKERALVAAITSSGGRTYYADSVKGRFTISRDNAKNTVYLQMNSLKPEDTAVYYGAVTLRRGYDYWGQGTQVTVSS | high polyreactivity
16 | QVQLVESGGGLVQAGGRLRLSCAASGSIFAYYAMGSYRQAPGKERELVAAISSSGGSTTYADSVKGRFTISRDNAKYTVYLQMNSLKPDDTAVYYCNAAWRRSRYYNWGQGTQVTVSS | high polyreactivity
17 | QVQLVESGGGLVQAGGRLRLSCAASGSIFDENTMGWYRQAPGKERELVAAITYSGTSTYYADTVKGRFTISRDNAKNTVYLQMNSLKPEDTAVYYCAAEQWRYDGSFTGYGYWGQGTQVTVSS | low polyreactivity
18 | QVQLVESGGGLVQAGGRLRLSCAASGSIFGTNAMGWYRQAPGKERELVAAISSSGTSTYYADSVKGRFTISRDNAKNTVYLQMNSLKPEDTAVYYCAAATNWGGEYWGQGTQVTVSS | high polyreactivity
19 | QVQLVESGGGLVQAGGRLRLSCAASGSIFPYYAMGWDRQAPGKERELVASINQSDGTRYYADSVKGRFTISRDNAKNTVYLQMNSLKPEDTAVYYCAADTTLQAFIRYRPMGSYDSWGQGTQVTVSS | low polyreactivity
20 | QVQLVESGGGLVQAGGRLRLSCAASGSIFPYYVMGWYRQAPGKERELVAAISTSDGSTYADSVKGRFTISRDNAKNTVYLQMNSLKPEDTAVYYCAVANVYYVGYDYWGQGTRVTVSS | low polyreactivity
21 | QVQLVESGGGLVQAGGRLRLSCAASGSSSTPYTMGWYRPAPGKERELVAAISWIGDTTSYADSVKGRFTISRDNAKNTVYLQMNSLKPEDTAVYYCNAEHRGYDYWGHGTQVTVSS | low polyreactivity
22 | QVQLVESGGGLVQAGGRLRLSCAASGSTFFIYAMRCFRQAPGKERELVAAISSRGGRTYYADSVKGRFTISRDNAKNTVYLQMNSLKPEDTAVYYCYFLIYSKGQAFDYWGQGTQVSVSS | high polyreactivity

Row | Sequence | polyreactivity (PSR sort gate)
23 | QVQLVESGGGLVQAGGRLRLSCAASGSTFGAYAMGWYRQAPGKERELVAAIRGSGAGTYYADSVKGRFTISRDNAKNTVYLQMNSLKPEDTAVYYCNTANLRSLGWTFRRYSYEYWGQGTQVTVSS | high polyreactivity
24 | QVQLVESGGGLVQAGGRLRLSCAASGSTFLVYAMGWYRQAPGKERELVAVIRWRDGSTYYADSVKGRFTISRDNAKNTVYLQMNSLKPEDTAGYYCAAVYWGEEYEYWGQGTQVTVSS | low polyreactivity
25 | QVQLVESGGGLVQAGGRLRLSCAASGSTFRLYAMGRYRQAPGKERELVAAIRGSGGSTYYADSVKGRFTISRDNAKNTVYLQMNSMKPEDNAVYYCAARVVVARRSYVGYGYWGQGTQVTVSS | high polyreactivity
26 | QVQLVESGGGLVQAGGRLRLSCAASGSTFVKNTMGWYIQPPGKERELVAAISSRGGSTYYADSVKGRFTISRDNEKNTVYFQMNSLKPEDTAVYYCAKDGRVSRDFDYWGQGTQVTVSS | low polyreactivity
27 | QVQLVESGGGLVQAGGRLRLSCAASGSTFVRYAMGWYRQAPGKERELVAAISSSGATTYYADSVKGRFTISRDNAKNTVYLQMNSLKPEDTAVYYCAKYGRATRGLDNYWGQGTQVTVSS | high polyreactivity
28 | QVQLVESGGGLVQAGGRLRLSCAASGSTFYQYAMGWYRQAPGKERELVAAISKSGGSTYYADSVKGRFTISRDNAKNTVYLQMNSLKPEDTAVYYCATRWIKGRKMVYWGQGTQVTVSS | high polyreactivity
29 | QVQLVESGGGLVQAGGRLRLSCAASGSTFYRYAMGMYRPAPGKERELVAAINRSGVTTYYADSVKGRFTISRDNAKNTVYLQMNSLKPEDTAVYYCAAVLGRGLDYYYLGQGTQVTVSS | high polyreactivity
30 | QVQLVESGGGLVQAGGRLRLSCAASGSTIRRYAMRWYRQAPGKERELVAAIRQRGTSTYYADSVKGRFTISRDNAKNTVYLQMNSLKPEDTAVYYCAADSYSSRGNYWGQGTQVTVSS | high polyreactivity
31 | QVQLVESGGGLVQAGGRLRLSCAASGTRYYAMGWYRQAPGNERELVAGIRWRDGGTYYADSVKGRFTISRDNAKNTVYLQMNSLKPEDTAVYYCNAAQSVELGYDYWGQGTQVTVSS | high polyreactivity
32 | QVQLVESGGGLVQAGGRLRLSCAASGTTFVYYAMGWYRQAPGKERELVAAITASGGRTYYADSVKGRFTISRDNSKNTVYLEMNSLKPDDTAVYYCNARARKSIRVGGYNYWGQGSQVTVSS | high polyreactivity
33 | QVQLVESGGGLVQAGGRLRLSCAASVFIFGIYASGWYRQAPGKDRELVAAITWDTGSTYYADSVKGRFTISRDNAKNTVYLQMNRLKPEDTAVYYRAVDGWDLTYYDSYYSWGQGTQVTVSS | high polyreactivity
34 | QVQLVESGGGLVQAGGRLRLSCAASVGTFRPYAMGWYRQAPGKERELVAAISYTGSTYYADSVKGRFTISRDNAKNTVYLQMNSLKPADTAVYYCAKDFWYPPRFDYWGHGTQVTVSS | low polyreactivity
35 | QVQLVESGGGLVQAGGRLRLSCAATGFTFTYYPMGWYRQATGKETEFVAAITWNSGTTYYADSVKGRFTISRDNAKNTVYLQMISLKPEDTAVYYCNALWHRQRWSRGDYWRQGTQVTVSS | high polyreactivity
36 | QVQLVESGGGLVQAGGRLRLSCASSGGTLSRYAMGWYRQAPGKERELVAAINWIGGRTSYADSVKGRFTISRDNAKNTVYLQMKSLKPEDTAVYYCAAQYYYAPPWRKYDYWGQGTQVTVSS | high polyreactivity
37 | QVQLVESGGGLVQAGGRLRLSCASTGLTLHGNAMGWYRQAPGKERELVATISSSGGSTFYADSVKGRFTISRDNAKNTDYLQMNSLKPEDTAVYYCNADAPYSDDYYVRFDYWGQGTQVTVSS | low polyreactivity
38 | QVQLVESGGGLVQAGGRLRLSCPASGGTFYIYVMGWYRQAPGKESELVAAITSGDSTNYADSVKGRFTISRDNAKNTVYLQMNSLKPEDTAVYYCAVGITQDPLMYYPFFFHYDYWGQGTQVTVSS | low polyreactivity
39 | QVQLVESGGGLVQAGGRLRLSFAASGSIFVFYVMGWYRQAHGKERELVAAISNSGSSTYYADSVKGRFTISRDNAKNTVYLQINSLKPEDTAVYYCAAEYKIPVGFDYWGQGTQVTVSS | low polyreactivity
40 | QVQLVESGGGLVQAGGRLRLSFAASGSIFYRNVLGWYREAPGKERELVATISRGGTTNYADSVKGRFTISRDNAKNTVYLQMNSLKPEDTAVYYCAAPIGDVYVGKGYDSWGQGTQVTVSS | low polyreactivity
41 | QVQLVESGGGLVQAGGRLRLSSAASGFIFWYYAMGWYRQEPGKERELVAAITSGGNTNYADSVKGRFTISRDNAKNTVYLQMNSLKPEDTAVYYCATGRASGREHDSWGQGTQVTVSS | low polyreactivity
42 | QVQLVESGGGLVQAGGRLRLTCAASGINFRSYAMGWYRQATGKERELVAGISLSGGSTYYADSVKGRFTISRDNAKNSDYLQMNSLKPEDTAVYYCATRYHYFGALRYGYCGQGTQVTVSS | high polyreactivity
43 | QVQLVESGGGLVQAGGRLRLTCAASGRIFFWYVMGWYRQATGKERELVAAISSGGRTYYADAVKGRFTISRDNAKNTVYLQMNSLKPEDTAVYYCNVEEYHVRADIGYSNYGYWGQGTQVTVSS | low polyreactivity
